± gives the uncertainty stated by the source.
Test: amyloid nucleation score (Sup35N fusion, yeast selection) (log enrichment); library NNK3; higher = more nucleation; inactive = no reads after selection
Method in brief: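 Growth for 7 days at 30°C on medium lacking adenine and uracil followed a 24-hour induction with 100 μM copper sulfate of psi-negative yeast expressing peptides of 20 random codons fused to Sup35N. Input and output plasmid inserts were sequenced with Illumina, and sequences with under 100 input reads were excluded. Nucleation score is the DiMSum log enrichment of output over input reads, centred on the mode score of non-aggregating sequences.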

Substance | amyloid nucleation score
ANKPWVNDIFPT | inactive
FMVILMRAISMSKIKSILYH | inactive
IYHSYNESVCTYSNHPSRM | inactive
FAVDFLCHVS | inactive
NTSLRYIKLFSVNDALPLP | inactive
WLKNF | inactive
HGFEIDTRTDSRQAVNCMCC | inactive
GVPIWCEKYKLILQKNWLFK | inactive
YYPLLIPLY | inactive
IVFWRSFHKNA | inactive
RAFLPYYAGYEDRTQSWL | inactive
FYVTMTAASFPDFRHCVVND | 0.01 ± 0.57
TNQQYGSLGFISTSGIILLF | inactive
LYTNGIFYWQMGYLKVWQGI | inactive
LGMCSHESYNLHEEICIW | inactive
WLYRNA | inactive
FFERSR | inactive
WSCNN | inactive
RERVATFQQPTRHGGGSLAS | inactive
MTAMSFKGYAVIGGVIDRCR | inactive
SGWYWICLKHRGQVDHPLST | inactive
VINCIDMRLVYMLGETFFNY | 2.03 ± 0.083
ATRSLSDRPLEYCNNVDRKK | inactive

Substance | amyloid nucleation score
KPPQNILVDMRLEGSMC | inactive
YGMWHHYFGDLTLSSRLNHV | inactive
SEVFNQLGTARSNMARRACA | inactive
DSADVMIAYASVVVVTIECC | inactive
KTRERGLSTGDGTQNEIAGY | -0.123 ± 0.51
EVLLFVFKEGTHLVGLW | inactive
TYDTGWKCREPNVTIFNVWL | 2.91 ± 0.053
EDLNPSSVLYRPSIDFM | inactive
QTLFRTLWRFIIITAKQSSD | inactive
LCVSLNCPQFSFYSLQNQPY | 2.71 ± 0.053
YGCFVPY | inactive
ICLDKITDAIYMDYNRAFSC | inactive
RGFFSHWSFDVTHYVLVRTL | inactive
VKKLSKVHDSCGMREVLGCH | -0.36 ± 1.1
ILISMEPPLFRDTLKNTGNC | inactive
TVDVIRYISPDLDKTSYEWK | inactive
RLVPFTWGHIPG | inactive
VKISMNYKTQLTWLLFAWIL | inactive
NNTEHS | inactive
TKWFCVFTLSRNINRFTRL | inactive
DNVSKSSIHTTLVLASFLCS | 1.55 ± 0.11
FQPSSASPIGWIGMSAFDSW | inactive
NCSELGSS | inactive

Substance | amyloid nucleation score
DKMIGWGDWSSLY | inactive
QQHRSALRVQVHRVCGNSVI | inactive
GPWLLRASNAHTWTRYGLVK | inactive
RNISDMEPS | inactive
NYPSYSMHNDIFYAFNFSIS | 2.17 ± 0.084
AYEIQWIWPNAASTVKSVLA | inactive
EFHCSYLVIWYG | inactive
RSNGPLFQVVITYCVSLPLN | inactive
SYFVALMSLRYMESTYWR | inactive
SAIRMPAYDYTWRGLYGDKK | inactive
MTAVVDRTSNGYSYVTGHLL | inactive
MCVFNNGVGLPDVGVNLAYN | inactive
FVVELCVDPTFKLYD | inactive
SIGTKLASCLYLKR | inactive
ACSYVGTKMLPGANLRDKPW | -0.387 ± 1.5
VRIRGWFAGHGNFWFSL | inactive
LGSWLWR | inactive
IEVYYSNRSWCLRQIRGCTG | inactive
TLQHLGYVSNIWGVVTAAGS | inactive
DTLYIASYEAVSGLRSPYER | inactive
STLFSPR | 0.922 ± 0.14
GQLYVMSRSDQARDSFELDA | inactive
YYWMAWRTLGAVRAG | -0.458 ± 0.5

Substance | amyloid nucleation score
MGMARWYAKWLGWVLSMYRW | inactive
MISLMTYSYSRYMYIVSPVP | inactive
QKMGRGARKCMQLYVMGKDL | inactive
RMAYIENGVDTAACSDLYVL | inactive
LKVPSVVNR | inactive
RMGHWCRVAGSKLLGVV | -0.131 ± 1.2
AHGNINFSLCDWHHIIQFSM | inactive
HKGALVWYFYCRANFADYLY | inactive
TTIFLDS | inactive
LEEDVHISFHHIFDRFCPTT | inactive
SLTSSFFSSMDVFNSALKGG | inactive
FYIICWWVLDQDFCAWL | inactive
SLGSPYRTRGCLNKSPPLAC | inactive
NTPRRLHSYLFSTLWY | inactive
DRRYEGGRKVQSYTVARPWS | inactive
HWGWVTSIESVVRRFCNNFC | inactive
HQSNFGDMSLVSNGSFRKAK | inactive
ITWSFTVDMDALCCGPWNVR | 3.18 ± 0.078
LPLFSLSTFFFVCVVCL | 0.464 ± 0.14
AWVHNSVRRHSSPSPRLGGM | inactive
KCLGFHKHGALFTAYWGQTS | inactive
HMRIGNESWVIGCQ | 0.132 ± 0.75
GLAASSTNAFTRHVLNRV | 1.51 ± 0.13

Substance | amyloid nucleation score
AVVRDDLVSCPPSAATLQIP | inactive
SESLMYRAKRVSTHYNFMCL | inactive
AYFDLWLM | inactive
LLLCS | 0.402 ± 0.18
IFVILW | 0.101 ± 0.6
NRRYFVELCGGNFM | inactive
MRNLGGLCIALPEVVEGTDF | inactive
HFLFVMSCPKWAVRFLAFVD | inactive
FIPYYRCDQMLSGILVRFFS | inactive
TLLARFSPRLATTYSNAICG | inactive
SNSVFIWYWPEWVEDWSSWL | 0.607 ± 0.16
RTNQLREPRANRWEGLAVLK | inactive
GCFNGNSYRSLPFWFMSTCL | inactive
STTFDLARWASVKSVHFCYF | inactive
GVGNPGWAVLM | inactive
SYEGMTREPLYMVYMRGSTD | 1.16 ± 0.16
FMSSFISMYFASAFHYAMWH | inactive
MLISERIFQYTCGNYS | 2.09 ± 0.085
LSYHTCSVMYALRMSALDCR | inactive
YLNSDYSMKFTRWY | 1.1 ± 0.12
TKYTNPHERSIEMSLFRERQ | inactive
NKVVMGNLWGPPVFDRCDKG | inactive
RARNTKLCNLSVCMTMGPEA | inactive

Substance | amyloid nucleation score
YSCFVRHCVDRFVRNDSDQT | inactive
SSNFVFNLPSTWWSYYMTWV | -0.216 ± 0.75
HTWTWDIII | 0.065 ± 0.23
EWVALNSSYLWYCPVM | inactive
WRLVLLHW | inactive
HFRYY | inactive
ASACPRLWVRLCLGCVIPKE | inactive
VWPFPRFRILVKYSFFLGIW | -0.232 ± 0.48
GKRNEWN | inactive
YYLSFVKKCNDSEVIWTKSV | inactive
NSSLY | inactive
LVYTA | inactive
HITGNGPHLRYCARQVLWSL | inactive
NVYFGRYFI | inactive
LREVRTAVSLGQMGRGLQA | inactive
TFCLFRS | -0.343 ± 0.63
GSRCSASPKNSESGRGKYFG | inactive
NNFTVAWFYRHGSLSISFGY | inactive
YCGWLCSSPPVQNV | inactive
SLKPLVYMGLST | inactive
LKRSFNDFEFH | inactive
GISRLFVGMKKAVTWSAKER | inactive
FFSLLT | inactive

Substance | amyloid nucleation score
RPDCEYGSS | inactive
DGVALFNVVRFVVGIDILLI | inactive
ELIKCFFYYNDVGV | inactive
SLYYSTCIK | inactive
KNNGTSKGVCRLQIMLFGLA | inactive
RIVYCSFTKVG | inactive
VERRMTKVWTGARSPGRVFW | inactive
SLRSFECFSSCTGLWCMLWG | inactive
VGPLSDSVFMYGT | inactive
FFEWRTGLFVLWLSEVTSLM | inactive
EYPFFIKSQGR | inactive
IQKLSFYTVCFMYDWLLTFK | inactive
NLVACIVNTCYL | 1.52 ± 0.14
LHYICQKLGGMWMVLVCRAC | inactive
MYRNECSMLSSIHLTVPSGN | inactive
NSVHREECFLITF | inactive
FTRNEQP | inactive
AYFLLCHHFTKRSWARGWR | 0.314 ± 0.46
RTEKMGRDTKRYCVPHINFG | inactive
GRNYFENVWIHRLYSSCLVM | 1.94 ± 0.068
ESVSNSYVQTKWEYQLC | inactive

From the supplement of paper PMC12042874
